Consider one molecule from US20200385434A1 (VOLUTION IMMUNO PHARMACEUTICALS, published 2020).

The Kd is a measure of binding affinity in units of concentration. Higher therefore signals weaker binding.

The assay deals with T1, human complement component C5 (human, UniProt P01031 19-673; P01031 678-1676).
T1 construct: Purified human C5 was amine-coupled to a CM3 sensor chip for SPR; In the CH50 assay the C5 is the one present in pooled normal human serum; Native C5 is a disulphide-linked two-chain protein made from one precursor; also called human C5
T1 sequence (P01031 19-673 limits assumed, chain 1 of 2): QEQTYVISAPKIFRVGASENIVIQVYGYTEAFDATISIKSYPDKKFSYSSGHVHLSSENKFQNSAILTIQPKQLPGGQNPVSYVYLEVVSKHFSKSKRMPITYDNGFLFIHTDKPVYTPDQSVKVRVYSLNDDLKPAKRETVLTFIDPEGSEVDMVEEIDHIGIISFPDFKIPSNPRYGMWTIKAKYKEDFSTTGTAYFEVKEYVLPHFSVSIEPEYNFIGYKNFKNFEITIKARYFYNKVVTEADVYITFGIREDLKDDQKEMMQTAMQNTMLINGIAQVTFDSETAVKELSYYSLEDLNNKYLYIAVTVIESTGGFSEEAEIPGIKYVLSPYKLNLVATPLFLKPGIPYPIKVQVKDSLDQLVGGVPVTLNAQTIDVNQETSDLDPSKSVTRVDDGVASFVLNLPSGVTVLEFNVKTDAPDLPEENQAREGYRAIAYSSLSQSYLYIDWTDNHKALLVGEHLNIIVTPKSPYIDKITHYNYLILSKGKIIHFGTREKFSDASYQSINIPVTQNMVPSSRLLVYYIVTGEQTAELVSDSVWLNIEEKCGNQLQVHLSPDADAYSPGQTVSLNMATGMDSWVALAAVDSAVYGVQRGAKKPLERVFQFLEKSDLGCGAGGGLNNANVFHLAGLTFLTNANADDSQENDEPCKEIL
T1 sequence (P01031 678-1676 limits assumed, chain 2 of 2): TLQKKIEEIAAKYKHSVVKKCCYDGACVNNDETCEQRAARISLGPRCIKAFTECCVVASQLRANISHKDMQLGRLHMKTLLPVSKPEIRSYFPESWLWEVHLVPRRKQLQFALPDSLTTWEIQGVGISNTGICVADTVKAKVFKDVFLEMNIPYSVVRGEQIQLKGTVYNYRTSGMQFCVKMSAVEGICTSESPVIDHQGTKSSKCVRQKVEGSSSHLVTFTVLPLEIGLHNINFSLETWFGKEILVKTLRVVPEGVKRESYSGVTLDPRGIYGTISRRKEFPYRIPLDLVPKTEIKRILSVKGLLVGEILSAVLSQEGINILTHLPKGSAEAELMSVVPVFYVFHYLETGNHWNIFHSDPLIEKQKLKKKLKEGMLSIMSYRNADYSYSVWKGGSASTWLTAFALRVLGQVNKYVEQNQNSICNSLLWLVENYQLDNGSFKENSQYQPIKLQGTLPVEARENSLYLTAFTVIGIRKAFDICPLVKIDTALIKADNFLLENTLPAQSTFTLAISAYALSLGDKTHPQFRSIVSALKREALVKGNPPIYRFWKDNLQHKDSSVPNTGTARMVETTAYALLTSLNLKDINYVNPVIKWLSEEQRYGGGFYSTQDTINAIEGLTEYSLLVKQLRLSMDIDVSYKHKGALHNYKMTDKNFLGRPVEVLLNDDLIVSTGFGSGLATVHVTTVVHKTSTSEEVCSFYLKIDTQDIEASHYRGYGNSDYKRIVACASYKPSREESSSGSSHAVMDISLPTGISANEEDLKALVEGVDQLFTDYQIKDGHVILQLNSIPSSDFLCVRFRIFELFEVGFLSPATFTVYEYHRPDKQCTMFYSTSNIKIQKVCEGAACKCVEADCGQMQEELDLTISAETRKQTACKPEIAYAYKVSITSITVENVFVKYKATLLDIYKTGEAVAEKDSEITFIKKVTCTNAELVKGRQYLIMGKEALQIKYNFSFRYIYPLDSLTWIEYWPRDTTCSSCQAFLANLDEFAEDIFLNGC
Description: SPR (BIAcore 2000, 25 C), human C5 amine-coupled to a CM3 chip, Coversin injected at 0-96 nM, global Langmuir fit. On the technique in general: Surface plasmon resonance follows binding to a sensor surface in real time, without labels.

B1: wild type Coversin (Ornithodoros moubata) (other)
chain: DSESDCTGSEPVDAFQAFSEGKEAYVLVRSTDPKARDCLKGEPAGEKQDNTLPVMMTFKNGTDWASTDWTFTLDGAKVTATLGNLTQNREVVYDSQSHHCHVDKVEKEVPDYEMWMLDAGGLEVEVECCRQKLEELASGRNQMYPHLKDC
notes: also called Coversin wild type; unmodified Coversin polypeptide
On to B1, for which binding was put at a Kd of 1.45 nM.
